Laboratory results as given in patent publication US20150368333A1 (GlaxoSmithKline, published 2015).

Legend:
[1] = molecular target: T1, TNF alpha (species not given) (UniProt P01375 77-233, limits assumed); assay: cell-based or functional assay
[2] = molecular target: T1, TNF alpha (species not stated in the …); assay: cell-based or functional assay; remark: listed apart in the source
[3] = molecular target: T2, recombinant human TNFα (human, UniProt P01375 77-233); assay: Biacore T100 SPR, antibody captured on Protein A, TNF alpha as analyte, 37 C
T2 construct: also called human TNF alpha; tumour necrosis factor alpha
T2 sequence (P01375 77-233 limits assumed): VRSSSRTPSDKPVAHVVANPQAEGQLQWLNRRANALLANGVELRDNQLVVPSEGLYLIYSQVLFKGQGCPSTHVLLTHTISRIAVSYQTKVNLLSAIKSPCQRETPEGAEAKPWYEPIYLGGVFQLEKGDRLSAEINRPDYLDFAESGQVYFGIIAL

[4] = molecular target: T3, recombinant cynomolgus TNF alpha (cynomolgus, UniProt P79337 77-233); assay: as above
T3 construct: also called Cyno TNFα
T3 sequence (P79337 77-233 limits assumed): as the sequence (P01375 77-233 limits assumed) above, with L37V, R44T, T72N, R138L counted along it

[5] = molecular target: T2, recombinant human TNFα; assay: Biacore T100 SPR, antibody captured on anti-human IgG, TNF alpha as analyte, 37 C
[6] = molecular target: T3, recombinant cynomolgus TNF alpha; assay: as above
[7] = molecular target: T1, TNF alpha (species not stated in the …); assay: ProteOn SPR reverse format, biotinylated TNF alpha captured on neutravidin (NLC) chip, antibody as analyte, 1:1 model, apparent kinetics
[8] = molecular target: T4, recombinant human FcRn (human, UniProt P55899 24-297; P61769 21-119, limits assumed); assay: SPR, antibody amine-coupled on GLM chip, FcRn as analyte, equilibrium model, pH 6.0
T4 construct: also called Human FcRn receptor
T4 sequence (P55899 24-297 limits assumed, chain 1 of 2): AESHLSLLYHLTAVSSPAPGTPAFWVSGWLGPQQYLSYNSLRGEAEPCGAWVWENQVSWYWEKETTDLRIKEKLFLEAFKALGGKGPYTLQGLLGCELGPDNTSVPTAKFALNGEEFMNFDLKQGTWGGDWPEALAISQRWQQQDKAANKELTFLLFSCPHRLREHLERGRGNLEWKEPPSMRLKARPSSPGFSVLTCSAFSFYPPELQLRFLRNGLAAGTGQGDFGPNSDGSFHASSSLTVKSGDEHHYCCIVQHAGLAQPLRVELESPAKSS
T4 sequence (P61769 21-119 limits assumed, chain 2 of 2): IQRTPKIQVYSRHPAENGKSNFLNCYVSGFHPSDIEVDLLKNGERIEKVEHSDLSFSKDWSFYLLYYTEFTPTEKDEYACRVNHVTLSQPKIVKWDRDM

[9] = molecular target: T5, recombinant cynomolgus FcRn (cynomolgus, UniProt Q8SPV9 24-297; Q8SPW0 21-119, limits assumed); assay: as above
T5 construct: Construct not described; beta-2-microglobulin not mentioned; also called cyno FcRn

[10] = molecular target: T6, mouse FcRn (mouse, UniProt Q61559 22-297; P01887 21-119, limits assumed); assay: as above
T6 construct: Construct not described; also called Mouse FcRn receptor
T6 sequence (looked up) 1: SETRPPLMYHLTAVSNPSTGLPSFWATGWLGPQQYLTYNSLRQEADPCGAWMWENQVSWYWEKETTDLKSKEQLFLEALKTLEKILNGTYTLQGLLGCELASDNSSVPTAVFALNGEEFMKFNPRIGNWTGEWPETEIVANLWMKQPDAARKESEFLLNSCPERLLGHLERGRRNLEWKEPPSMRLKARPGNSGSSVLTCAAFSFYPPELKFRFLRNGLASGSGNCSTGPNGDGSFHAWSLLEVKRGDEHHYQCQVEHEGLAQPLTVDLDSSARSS
T6 sequence (looked up) 2: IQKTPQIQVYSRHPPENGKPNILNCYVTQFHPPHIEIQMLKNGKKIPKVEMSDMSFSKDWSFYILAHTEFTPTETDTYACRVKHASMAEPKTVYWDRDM

[11] = molecular target: T7, rat FcRn (rat, UniProt P13599 23-298; P07151 21-119, limits assumed); assay: as above
T7 construct: Construct not described; also called Rat FcRn receptor
T7 sequence (looked up) 1: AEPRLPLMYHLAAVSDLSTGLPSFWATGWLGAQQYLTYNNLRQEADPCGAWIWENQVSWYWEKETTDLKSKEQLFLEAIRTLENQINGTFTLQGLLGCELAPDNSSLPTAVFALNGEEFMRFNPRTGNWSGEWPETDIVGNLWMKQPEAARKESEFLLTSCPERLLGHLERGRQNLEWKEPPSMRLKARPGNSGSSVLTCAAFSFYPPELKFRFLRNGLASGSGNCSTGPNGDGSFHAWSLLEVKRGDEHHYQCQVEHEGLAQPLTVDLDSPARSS
T7 sequence (looked up) 2: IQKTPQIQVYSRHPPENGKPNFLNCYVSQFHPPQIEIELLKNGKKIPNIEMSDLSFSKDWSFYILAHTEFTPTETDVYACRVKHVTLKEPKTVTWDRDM

[12] = molecular target: T4, recombinant human FcRn; assay: SPR, antibody amine-coupled on GLM chip, FcRn as analyte, equilibrium model, pH 7.4
[13] = molecular target: T5, recombinant cynomolgus FcRn; assay: as above
[14] = molecular target: T6, mouse FcRn; assay: as above
[15] = molecular target: T7, rat FcRn; assay: as above
[16] = molecular target: T4, recombinant human FcRn; assay: SPR, antibody amine-coupled on GLM chip, FcRn as analyte, equilibrium model, pH 6.0; pH 6.0
[17] = molecular target: T5, recombinant cynomolgus FcRn; assay: as above
[18] = molecular target: T6, mouse FcRn; assay: as above
[19] = molecular target: T7, rat FcRn; assay: as above

T1 sequence (P01375 77-233 limits assumed): as the sequence (P01375 77-233 limits assumed) above

B1: BPC1500 (antibody, V domains shown)
VH: EVQLVESGGGLVQPGRSLRLSCAASGFTFDDHALHWVRQAPGKGLEWVSAITWNSGHIDYADSVEGRFTISRDNAKNSLYLQMNSLRAEDTAVYYCAKVRYLSTASSLDYWGQGTLVTVSS
VL: not shown
notes: also called CDR variant cb2-44, wild-type Fc; improved anti-TNFα antibody
IC50, L929 neutralisation assay (cell viability) [1]: 0.13 µg/mL
IC50, TNFα-induced IL-6 release assay (whole blood) [2]: 0.11 nM
Kd [3]: 0.0156 nM
koff [3]: 4.19e-05 s⁻¹
kon [3]: 2.68e+06 M⁻¹ s⁻¹
Kd [4]: 0.015 nM
koff [4]: 3.51e-05 s⁻¹
kon [4]: 2.34e+06 M⁻¹ s⁻¹
Kd [5]: 0.0157 nM
koff [5]: 7.07e-05 s⁻¹
kon [5]: 4.51e+06 M⁻¹ s⁻¹
Kd [6]: 0.0467 nM
koff [6]: 0.000209 s⁻¹
kon [6]: 4.48e+06 M⁻¹ s⁻¹
Kd [7]: 0.015 nM
koff [7]: 3e-05 s⁻¹
kon [7]: 2.06e+06 M⁻¹ s⁻¹

B2: BPC2604 (antibody, human IgG1, kappa)
heavy: QVTLRESGPALVKPTQTLTLTCTFSGFSLSTSGMGVSWIRQPPGKGLEWLAHIYWDDDKRYNPSLKSRLTISKDTSRNQVVLTMTNMDPVDTATYYCARRETVFYWYFDVWGRGTLVTVSSASTKGPSVFPLAPSSKSTSGGTAALGCLVKDYFPEPVTVSWNSGALTSGVHTFPAVLQSSGLYSLSSVVTVPSSSLGTQTYICNVNHKPSNTKVDKKVEPKSCDKTHTCPPCPAPELLGGPSVFLFPPKPKDTLYITREPEVTCVVVDVSHEDPEVKFNWYVDGVEVHNAKTKPREEQYNSTYRVVSVLTVLHQDWLNGKEYKCKVSNKALPAPIEKTISKAKGQPREPQVYTLPPSRDELTKNQVSLTCLVKGFYPSDIAVEWESNGQPENNYKTTPPVLDSDGSFFLYSKLTVDKSRWQQGNVFSCSVMHEALHNHYTQKSLSLSPGK
light: DIVLTQSPSSLSASVGDRVTITCKASQSVDYDGDSYMNWYQQKPGKAPKLLIYAASNLESGIPSRFSGSGSGTDFTFTISSLQPEDIATYYCQQSNEDPPTFGQGTKVEIKRTVAAPSVFIFPPSDEQLKSGTASVVCLLNNFYPREAKVQWKVDNALQSGNSQESVTEQDSKDSTYSLSSTLTLSKADYEKHKVYACEVTHQGLSSPVTKSFNRGEC
notes: also called pascolizumab-YTE; Pasco-YTE
Kd [8]: 98 nM
Kd [9]: 92.1 nM
Kd [10]: 53.4 nM
Kd [11]: 66 nM
Kd [12]: 11600 nM
Kd [13]: 11100 nM
Kd [14]: 2160 nM
Kd [15]: 4330 nM

B3: Pascolizumab (antibody, human IgG1, kappa)
heavy: not shown
light: DIVLTQSPSSLSASVGDRVTITCKASQSVDYDGDSYMNWYQQKPGKAPKLLIYAASNLESGIPSRFSGSGSGTDFTFTISSLQPEDIATYYCQQSNEDPPTFGQGTKVEIKRTVAAPSVFIFPPSDEQLKSGTASVVCLLNNFYPREAKVQWKVDNALQSGNSQESVTEQDSKDSTYSLSSTLTLSKADYEKHKVYACEVTHQGLSSPVTKSFNRGEC
notes: IgG1, unmodified Fc; also called anti-IL-4 antibody
Kd [16]: 541 nM
Kd [17]: 505 nM
Kd [18]: 205 nM
Kd [19]: 228 nM
